Test results published in US10220090B2, “BCMA Antigen binding proteins” (Amgen Inc., priority 2012, dated 2019).
Changes are numbered by the printed parent chain.

B1: 29C12.1 ADC (conjugate)
VH: EVQLLESGGALVQPGGSLRLSCAASGFTFSSYAMNWVRQAPGKGLEWVSAISVGGDTYYADSVKGRFTISRDNSKNTLYLQMNSLRAEDTAVYYCAKDQVTMVRGVWYYYGLDVWGQGTTVTVSS
VL: DIVMIQSPLSLPVTPGEPASISCRSSQSLLHSNGNNYLDWYLQKPGQSPHLLISLGSNRTSGVPDRFSGSGSGTDFTLKISRVEAEDVGVYYCMQALQPPRRFGQGTKLEIKR
B2: 33C7.1 ADC (conjugate)
VH: B1 VH with Q81H, M82V, R86S, T90S, M102L
VL: B1 VL with D1V, M4L, V90F
B3: 40D7.1 ADC (conjugate)
VH: B1 VH
VL: B1 VL with Y37F, F67L, V90I, Q98R
B4: 37B2.1 ADC (conjugate)
VH: B1 VH with S31N, Q81H, M82V, R86S, T90S, M102L
VL: B1 VL with D1V, M4L, V90F
B5: 35D2.1 ADC (conjugate)
VH: B1 VH with D56G, Q81H, M82V
VL: B1 VL with D1V, M4L, V90F
B6: 32B5.1 ADC (conjugate)
VH: B1 VH with Q81H, M82V, R86S, T90S, M102L
VL: B1 VL with D1V, M4L, V90F
B7: Ab-4: fully human anti-huBCMA mAb, Vh SEQ ID NO:212, Vl SEQ ID NO:246 (antibody, V domains shown)
VH: QVQLVQSGAEVKKPGASVKVSCKASGYTFTGHYIHWVRQAPGQGLEWMGWIYPNSGGTNYAQKFQGRVTMTRDTSISTAYMELSRLRSDDSAVYYCAREGMVTGDYYYYRMDVWGQGTTVIVSS
VL: QPVLTQPPSASASLGASVTLTCSLSSGYSNYKVDWYQQRPGKGPRFVMRVGIGGIVGSKGDGIPDRFSVLGSGLNRYLTIKNIQEEDESDFHCGADHGSGNNFVYVFGTGTKVTVLG

Columns and labels:
[1] = tested on: various cell lines; experiment: Cell viability of various cell lines exposed to free DM1; format: cell-based; conditions: control
Description: The ADCs were tested for the ability to target and kill BCMA-expressing myeloma cells. The CellTiter-Glo® Luminescent Cell Viability Assay is a homogeneous method to determine the number of viable cells in culture based on quantitation of the ATP present, which signals the presence of metabolically active cells. The CellTiter-Glo® Assay is applicable to cytotoxicity assays (see http://www.promega.com/products/cell-health-assays/cell-viability-assays/celltiter_glo-luminescent-cell-viability-assay/for more information). The cell viability assay was used to assess the relative killing capacity of various ADCs on various multiple myeloma cell lines and B-cell lines. The protocol provided in the Cell Titer-Glo kit (Promega G7572) was followed. In short, 5×10^3 target cells in 90 ul RPMI 1640, 10% FBS were aliquoted into clear, flat bottom, white walled 96 well plates (Costar #3903). The ADCs were diluted into a 10× stock to create 500 nM maytansine drug equivalents. Each ADC was serially diluted in 2-fold dilutions in RPMI 1640, 10% FBS starting with 500 nM stock. […] Luminescence was read on an EnVision™ Multilabel reader (PerkinElmer) or Analyst HT plate reader (LJL Biosciences). The data was analyzed and graphed using GraphPad Prism™ to determine the relative efficacy of the ADCs on various cancer cell lines. […]

[2] = tested on: H929; experiment: CellTiter-Glo Luminescent Cell Viability Assay, H929; format: cell-based, human; conditions: ADCs of hybridoma-derived antibodies
Description: The ADCs were tested for the ability to target and kill BCMA-expressing myeloma cells. The CellTiter-Glo® Luminescent Cell Viability Assay is a homogeneous method to determine the number of viable cells in culture based on quantitation of the ATP present, which signals the presence of metabolically active cells. The CellTiter-Glo® Assay is applicable to cytotoxicity assays (see http://www.promega.com/products/cell-health-assays/cell-viability-assays/celltiter_glo-luminescent-cell-viability-assay/for more information). The cell viability assay was used to assess the relative killing capacity of various ADCs on various multiple myeloma cell lines and B-cell lines. The protocol provided in the Cell Titer-Glo kit (Promega G7572) was followed. […] The ADCs were diluted into a 10× stock to create 500 nM maytansine drug equivalents. […] 10 ul of the 10×ADC dilution series was added to the 90 ul of cells in media (triplicate wells). The highest concentration of ADC was approximately 50 nM maytansine drug equivalents, and the lowest concentration of ADC was approximately 50 pM maytansine drug equivalents. An isotype control ADC (an anti-streptavidin huIgG1 conjugated to MCC-DM1) was included, as well as a media-only control. The plates were incubated at 37° C., 5% CO2 for 96 hours. After incubation, 100 ul of the Substrate Solution (Promega G7572) was added to each well. Luminescence was read on an EnVision™ Multilabel reader (PerkinElmer) or Analyst HT plate reader (LJL Biosciences). The data was analyzed and graphed using GraphPad Prism™ to determine the relative efficacy of the ADCs on various cancer cell lines.
The 2A1CV5-MCC-DM1, 32B5-MCC-DM1 and 29C12-MCC-DM1 ADCs were tested for the ability to target and kill BCMA-expressing myeloma cells (H929). The CellTiter-Glo® Luminescent Cell Viability Assay is a homogeneous method to determine the number of viable cells in culture based on quantitation of the ATP present, which signals the presence of metabolically active cells. The CellTiter-Glo® Assay is applicable to cytotoxicity assays (see http://www.promega.com/products/cell-health-assays/cell-viability-assays/celltiter_glo-luminescent-cell-viability-assay/for more information). The cell viability assay was used to assess the relative killing capacity of various ADCs on various multiple myeloma cell lines and B-cell lines. The protocol provided in the Cell Titer-Glo kit (Promega G7572) was followed. […] The ADCs were diluted into a 10× stock to create 500 nM maytansine drug equivalents. […] 10 ul of the 10×ADC dilution series was added to the 90 ul of cells in media (triplicate wells). The highest concentration of ADC was approximately 50 nM maytansine drug equivalents, and the lowest concentration of ADC was approximately 50 pM maytansine drug equivalents. An isotype control ADC (an anti-streptavidin huIgG1 conjugated to MCC-DM1) was included, as well as a media-only control. The plates were incubated at 37° C., 5% CO2 for 96 hours. After incubation, 100 ul of the Substrate Solution (Promega G7572) was added to each well. Luminescence was read on an EnVision™ Multilabel reader (PerkinElmer) or Analyst HT plate reader (LJL Biosciences). The data was analyzed and graphed using GraphPad Prism™ to determine the relative efficacy of the ADCs on various cancer cell lines.

[3] = molecular target: T1, human BCMA (Homo sapiens, UniProt Q02223, N81S); experiment: FACS binding on cells transiently transfected to express full length BCMA
T1 construct: expressed in transfected cells
T1 sequence (Q02223 1-184 N81S): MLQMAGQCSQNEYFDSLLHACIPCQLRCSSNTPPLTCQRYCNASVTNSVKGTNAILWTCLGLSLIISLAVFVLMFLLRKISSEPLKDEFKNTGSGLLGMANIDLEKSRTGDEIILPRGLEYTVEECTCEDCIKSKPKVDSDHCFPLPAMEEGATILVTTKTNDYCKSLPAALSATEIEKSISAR
Description: An important criterion is exquisite selectivity for wild-type human BCMA expressed on the surface of cells. FACS binding on cells transiently transfected to express full length BCMA, TACI, or BAFF-R was performed using standard techniques. Approximately 40×10^6 of the transiently-transfected target cells were resuspended in a staining solution (2% goat serum, 1% rabbit serum, 0.02% azide in PBS) and aliquoted into round-bottom, 96-well plate (Corning Incorp., Acton, Mass.) as per the experiment design. The cells were incubated at 4 degrees celsius for 30 minutes to block non-specific sites. The antibodies were titrated into the staining solution. The cells were rinsed in a rinse solution (PBS+0.02% azide) by resuspending the cells in 200 ul/well. The cells were centrifuged at 1500 rpm at 4 degrees celsius for 7 minutes. The rinse solution was removed and the rinse step was repeated. The cells were resuspended in the appropriate antibody solution (see the matrix in TABLE 4) at 30 ul/well and incubated at 4 degrees celsius for 30 minutes. […] For the mouse IgG1 negative control and the two mouse antibodies (1.183 and 1.288), the secondary reagent was an anti-mouse IgG-PE conjugate (BD Pharmingen Cat. 550589). The cells/antibodies were rinsed as described above to remove excess/unbound antibody. […] Samples were read at 532 nm wavelength on FACS. […]

[4] = molecular target: T2, BCMA on H929 cells (Homo sapiens, UniProt Q02223, N81S); experiment: FACS binding to native BCMA on H929 myeloma cells
T2 construct: host or cells: H929
T2 sequence (Q02223 1-184 N81S): T1 sequence (Q02223 1-184 N81S)
Description: Approximately 10 to 40×10^6 of H929 myeloma cells were resuspended in a staining solution (2% goat serum, 1% rabbit serum, 0.02% azide in PBS) and aliquoted into round-bottom, 96-well plate (Corning Incorp., Acton, Mass.) as per the experiment design. The cells were incubated at 4 degrees celsius for 30 minutes to block non-specific sites. The antibodies were titrated into the staining solution. The cells were rinsed in a rinse solution (PBS+0.02% azide) by resuspending the cells in 200 ul/well. The cells were centrifuged at 1500 rpm at 4 degrees celsius for 7 minutes. The rinse solution was removed and the rinse step was repeated. […] The cells/antibodies were rinsed as described above to remove excess/unbound antibody. After the last rinse, the cells were resuspended in 200 ul of rinse solution with a drop of staining solution added to keep the cells from aggregating.
The antibodies were tested for binding to BCMA endogenously-expressed on a variety of cells, including the H929 cell line, which were developed from B-lymphocytes from a myeloma/plasmacytoma patient (ATCC, Manassa, Va.) using standard FACs techniques. […] The supernatants were removed and the cell pellets were resuspended in 0.2 mL/tube 4% paraformaldehyde in PBS and analyzed by flow cytometry

| Molecule | cytotoxicity to huBCMA-expressing myeloma target cells (H929) [2] | other results |
| --- | --- | --- |
| COc1cc2cc(c1Cl)N(C)C(=O)C[C@H](OC(=O)[C@H](C)N(C)C(=O)CCS)[C@]1(C)O[C@H]1[C@H](C)[C@@H]1C[C@@](O)(NC(=O)O1)[C@H](OC)/C=C/C=C(\C)C2 [DM1] |  | killing by free DM1 [1]: killed by free DM1 |
| B1 | showed cytotoxicity |  |
| B2 | showed cytotoxicity |  |
| B3 | showed cytotoxicity |  |
| B4 | showed cytotoxicity |  |
| B5 | showed cytotoxicity |  |
| B6 | showed cytotoxicity |  |
| B7 |  | BCMA (FACS binding) [3]: + (A sample was considered positive for binding if the MFI was two times the negative control value); binding to human BCMA on the surface of H929 myeloma cell line [4]: bound to human BCMA |
